# Measurements as given in article PMC4589357, “The Role of Electrostatic Interactions in Binding of Histone H3K4me2/3 to the Sgf29 Tandem Tudor Domain” (PLoS ONE, 2015).
# Changes are numbered by the printed parent chain. Names may count otherwise. Non-standard residues stand in square brackets, D forms with d. Primed or numbered codes have the meaning given here. No end group written: not given here. Lys(Me3) = C[N+](C)(C)CCCC[C@H](N)C(=O)O; Me3″ = trimethyl-lysine
# T1: Wild-type Sgf29 (SAGA-associated Factor 29) tandem tudor domain, residues 115-293 (human, UniProt Q96ES7 115-293)
# T1 construct: also called WT Sgf29; WT; source: E. coli Rosetta BL21 DE3 PlysS, purified (Ni-NTA, TEV cleavage, SEC Superdex 75)
# T1 sequence (looked up): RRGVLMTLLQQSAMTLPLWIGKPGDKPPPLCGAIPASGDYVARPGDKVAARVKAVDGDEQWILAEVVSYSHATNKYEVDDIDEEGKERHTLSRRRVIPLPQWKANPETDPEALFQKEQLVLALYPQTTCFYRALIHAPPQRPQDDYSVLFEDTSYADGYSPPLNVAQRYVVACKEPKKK
# B1: 10-mer H3K4me3 peptide that contains G instead of R at position 8 (ARTKme3QTAGKS) (peptide)
# peptide: ART[Lys(Me3)]QTAGKS
# notes: The synthesis is described only for the two native 10-mer peptides
# B2: 7-mer H3K4me3 peptide ARTKme3QTA (peptide)
# peptide: ARTK(Me3″)QTA
# notes: histone H3 N-terminal tail, 7-mer, K4 trimethylated, lacks the last three residues of the 10-mer; The synthesis is described only for the two native 10-mer peptides; also called 7-mer peptide
# B3: WT: Wild-type Sgf29 reader domain protein (Homo sapiens, residues 115–293) (protein)
# chain: T1 sequence (looked up)
# modifications: left off: 6xHis, end not stated, cleaved
# B4: D266W: Sgf29 variant, D266 substituted by tryptophan (protein)
# chain: T1 sequence (looked up) with D152W
# modifications: left off: 6xHis, end not stated, cleaved
# notes: Sgf29 variant, D266 substituted by tryptophan
# B5: D266F: Sgf29 variant, D266 substituted by phenylalanine (protein)
# chain: T1 sequence (looked up) with D152F
# modifications: left off: 6xHis, end not stated, cleaved
# notes: Sgf29 variant, D266 substituted by phenylalanine
# B6: D266Y: Sgf29 variant, D266 substituted by tyrosine (protein)
# chain: T1 sequence (looked up) with D152Y
# modifications: left off: 6xHis, end not stated, cleaved
# notes: Sgf29 variant, D266 substituted by tyrosine
# B7: Y238F: Sgf29 variant, Y238 substituted by phenylalanine (protein)
# chain: T1 sequence (looked up) with Y124F
# modifications: left off: 6xHis, end not stated, cleaved
# notes: Sgf29 variant, Y238 substituted by phenylalanine
# B8: Y245F: Sgf29 variant, Y245 substitution (Y245F) (protein)
# chain: T1 sequence (looked up) with Y131F
# modifications: left off: 6xHis, end not stated, cleaved
# B9: D266E: Sgf29 variant, substitution of D266 by glutamic acid (protein)
# chain: T1 sequence (looked up) with D152E
# modifications: left off: 6xHis, end not stated, cleaved
# notes: Sgf29 variant, substitution of D266 by glutamic acid
# B10: D266A: Sgf29 variant, D266 substituted by alanine (protein)
# chain: T1 sequence (looked up) with D152A
# modifications: left off: 6xHis, end not stated, cleaved
# notes: Sgf29 variant, D266 substituted by alanine
# B11: D266N: Sgf29 variant, D266 substituted by asparagine (protein)
# chain: T1 sequence (looked up) with D152N
# modifications: left off: 6xHis, end not stated, cleaved
# notes: Sgf29 variant, D266 substituted by asparagine
# Molecular target: T1, Wild-type Sgf29 (SAGA-associated Factor …)
# Experiment: ITC; peptide (generally 1.2 mM) titrated to protein (100 uM); for variants of low affinity 2.4 mM peptide to 200 uM protein; 25 mM TRIS pH 8.0, 50 mM NaCl, 1 mM DTT; one-site model
# Conditions: both partners purified
Molecule,Kd,dH
B1,4 ± 0.6 µM,-8 ± 0.1 kcal/mol
B2,9 ± 0.5 µM,-7.8 ± 0.1 kcal/mol

# Tested on: not listed separately
# Experiment: Differential scanning fluorimetry (DSF) melting temperature of Sgf29 and variants
# Type: physicochemical, Homo sapiens
# Conditions: SYPRO-Orange fluorescence, 25 mM TRIS pH 7.5, 50 mM NaCl, 1 mM DTT, 2.5 μl of 25 μM protein in 25 μl, 20–95°C, 1°C min^-1, ± SD, measured in triplicate
# Protocol: Wild-type and variant Sgf29 reader domain proteins (Homo sapiens, residues 115–293) were expressed in terrific broth (TB) medium containing 50 μg ml^-1 kanamycin, using E. coli Rosetta BL21 DE3 PlysS as expression host. Bacteria were cultured to OD600 ≈ 0.6 at 37°C, 200 rpm after which the cultures were induced using 1 mM IPTG (final conc.). Cultures were then incubated at 16°C for 16 hours. Cells were harvested and lysed by sonication in 1x PBS, 250 mM NaCl, 5% glycerol, 0.2% CHAPS, 10mM β-mercaptoethanol. Lysate was centrifuged and the supernatant purified using Ni-NTA beads. The 6xHis tag was cleaved off overnight at 4°C using TEV-protease. Size exclusion chromatography, using a superdex 75 column, was employed as a final purification step with 25 mM TRIS pH 8.0, 50 mM NaCl, 1 mM DTT as eluent. Protein concentrations were determined by UV/Vis spectroscopy at 280 nm.
# Sgf29 protein melt curves were obtained as described by Reinhard et. al. using a StepOne-Plus Real-Time PCR system (Applied Biosystems) and MicroAmp fast optical 96-well reaction plates (Applied Biosystems). SYPRO-Orange protein gel stain (Invitrogen) was used as a reporter dye, emitting fluorescence in the FAM channel. Total reaction volume was 25 μl; 20 μl buffer (25 mM TRIS pH 7.5, 50 mM NaCl, 1 mM DTT), 2.5 μl of 25 μM protein and 2.5 μl SYPRO-Orange dye (diluted 1:100 in ddH2O). Melt curve data were obtained in triplicate, in a temperature range of 20–95°C at a step-wise temperature increment of 1°C min^-1. Obtained data were analyzed using DSF Analysis v3.0.2 software, designed by Niesen et. al. (available via ftp://ftp.sgc.ox.ac.uk/pub/biophysics/).
row,Molecule,Tm
1,B3,57.8 ± 0.1 °C
2,B4,55.5 ± 0.1 °C
3,B5,53.9 ± 0.5 °C
4,B6,54.5 ± 0.2 °C
5,B7,56.5 ± 0.2 °C
6,B8,56.4 ± 0.1 °C
7,B9,57.7 ± 0.1 °C
8,B10,55.8 ± 0.3 °C
9,B11,56.4 ± 0.1 °C

# Same assay, conditions: SYPRO-Orange fluorescence, 25 mM TRIS pH 7.5, 50 mM NaCl, 1 mM DTT, 2.5 μl of 25 μM protein in 25 μl, 20–95°C, 1°C min^-1, ± SD, measured in triplicate, listed as WT Sgf29
row,Molecule,Tm
1,B3,57.8 °C

# Same assay, conditions: relative to WT Sgf29
row,Molecule,decrease in Tm relative to WT Sgf29
1,B4,2.3 °C
2,B5,3.3 °C
3,B6,3.9 °C
